Data taken from article PMC9482650, “Quantitative fragmentomics allow affinity mapping of interactomes” (Nature Communications, 2022).

Key:
Assay in all cases: holdup assay
Set-up in all cases: key: below the threshold = too weak to quantify, mostly under pKd 3.1 to 4
Conditions in all cases: plain residues with an end cap or a label only (N-terminal biotin on a linker: ado-ado)
Inadl_10, Q8NI35 = target: Inadl_10, Q8NI35
DLG4_2, P78352 = target: DLG4_2, P78352
DLG2_3, Q15700 = target: DLG2_3, Q15700
LNX1_3, Q8TBB1 = target: LNX1_3, Q8TBB1
LNX1_3, Q8TBB1, sequence (Q8TBB1 500-596): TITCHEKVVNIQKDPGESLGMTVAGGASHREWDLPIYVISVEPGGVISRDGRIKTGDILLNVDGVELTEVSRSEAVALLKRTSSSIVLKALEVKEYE

SHANK1, Q9Y566 = target: T1, SHANK1, Q9Y566
T1 sequence (Q9Y566 658-767, limits assumed, looked up): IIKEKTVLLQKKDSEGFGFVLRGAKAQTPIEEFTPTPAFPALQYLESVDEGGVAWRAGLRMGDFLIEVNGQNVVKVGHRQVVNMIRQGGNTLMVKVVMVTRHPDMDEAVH

ARHGAP21, Q5T5U3 = target: T2, ARHGAP21, Q5T5U3
T2 sequence (Q5T5U3 45-169, limits assumed, looked up): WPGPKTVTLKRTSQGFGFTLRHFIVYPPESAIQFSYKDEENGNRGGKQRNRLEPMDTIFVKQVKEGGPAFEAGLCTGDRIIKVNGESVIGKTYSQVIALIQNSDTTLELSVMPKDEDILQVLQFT

GORASP2, Q9H8Y8 = target: GORASP2, Q9H8Y8
MAGI2_4, Q86UL8 = target: MAGI2_4, Q86UL8
MAGI2_4, Q86UL8, sequence (Q86UL8 772-865): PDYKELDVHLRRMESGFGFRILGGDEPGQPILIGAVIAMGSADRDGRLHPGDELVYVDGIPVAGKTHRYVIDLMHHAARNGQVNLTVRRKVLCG

PDZD2_2, O15018 = target: T3, PDZD2_2, O15018
T3 sequence (O15018 329-429, limits assumed, looked up): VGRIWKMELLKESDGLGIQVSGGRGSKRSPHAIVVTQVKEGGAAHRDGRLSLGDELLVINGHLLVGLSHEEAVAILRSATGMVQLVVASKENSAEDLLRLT

RADIL, Q96JH8 = target: T4, RADIL, Q96JH8
T4 sequence (Q96JH8 971-1071, limits assumed, looked up): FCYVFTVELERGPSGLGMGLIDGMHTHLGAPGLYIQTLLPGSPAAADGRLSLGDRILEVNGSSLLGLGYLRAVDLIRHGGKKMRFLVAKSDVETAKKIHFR

Inadl_1, Q8NI35 = target: Inadl_1, Q8NI35
Inadl_1, Q8NI35, sequence (Q8NI35 113-229): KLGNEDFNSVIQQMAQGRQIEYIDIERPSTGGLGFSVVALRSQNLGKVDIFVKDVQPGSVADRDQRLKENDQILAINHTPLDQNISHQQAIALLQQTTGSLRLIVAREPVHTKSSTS

HTRA2, O43464 = target: HTRA2, O43464
HTRA2, O43464, sequence (O43464 355-458): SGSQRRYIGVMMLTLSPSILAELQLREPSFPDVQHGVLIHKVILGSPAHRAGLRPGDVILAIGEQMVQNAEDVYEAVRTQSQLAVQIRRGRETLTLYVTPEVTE

MAGI3_2, Q5TCQ9 = target: MAGI3_2, Q5TCQ9
MAGI3_2, Q5TCQ9, sequence (Q5TCQ9 398-503): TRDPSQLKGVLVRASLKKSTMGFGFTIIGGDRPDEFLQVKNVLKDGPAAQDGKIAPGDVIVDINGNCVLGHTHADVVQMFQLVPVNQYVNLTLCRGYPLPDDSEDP

MAST1, Q9Y2H9 = target: MAST1, Q9Y2H9
MAST1, Q9Y2H9, sequence (Q9Y2H9 962-1065): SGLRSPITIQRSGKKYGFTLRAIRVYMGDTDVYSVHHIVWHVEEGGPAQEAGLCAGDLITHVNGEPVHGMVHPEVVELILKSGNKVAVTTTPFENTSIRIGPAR

HTRA1, Q92743 = target: HTRA1, Q92743
HTRA1, Q92743, sequence (Q92743 360-477): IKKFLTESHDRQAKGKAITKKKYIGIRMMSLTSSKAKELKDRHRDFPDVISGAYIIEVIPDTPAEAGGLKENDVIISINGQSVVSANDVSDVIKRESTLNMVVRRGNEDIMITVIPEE

IL16_1, Q14005 = target: IL16_1, Q14005
IL16_1, Q14005, sequence (Q14005 210-306): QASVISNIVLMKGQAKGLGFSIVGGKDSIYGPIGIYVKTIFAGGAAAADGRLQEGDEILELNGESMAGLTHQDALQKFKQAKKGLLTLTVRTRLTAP

FRMPD4, Q14CM0 = target: FRMPD4, Q14CM0
FRMPD4, Q14CM0, sequence (Q14CM0 67-160): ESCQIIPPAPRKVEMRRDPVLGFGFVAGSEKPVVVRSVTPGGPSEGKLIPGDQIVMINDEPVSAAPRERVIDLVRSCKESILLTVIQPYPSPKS

Inadl_6, Q8NI35 = target: Inadl_6, Q8NI35
Inadl_6, Q8NI35, sequence (Q8NI35 1058-1167): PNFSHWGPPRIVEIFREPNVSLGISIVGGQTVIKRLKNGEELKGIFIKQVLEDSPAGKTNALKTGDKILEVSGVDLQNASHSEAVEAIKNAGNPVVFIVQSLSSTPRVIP

IL16_4, Q14005 = target: IL16_4, Q14005
IL16_4, Q14005, sequence (Q14005 1229-1329): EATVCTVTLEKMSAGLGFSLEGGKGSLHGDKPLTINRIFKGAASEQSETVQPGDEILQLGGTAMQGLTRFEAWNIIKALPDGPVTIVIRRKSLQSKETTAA

GRASP, Q7Z6J2 = target: GRASP, Q7Z6J2
GRASP, Q7Z6J2, sequence (Q7Z6J2 96-193): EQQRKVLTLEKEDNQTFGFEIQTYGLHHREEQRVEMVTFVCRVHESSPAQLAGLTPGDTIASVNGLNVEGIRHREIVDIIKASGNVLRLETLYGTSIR

SNTB1, Q13884 = target: T5, SNTB1, Q13884
T5 sequence (Q13884 107-205, limits assumed, looked up): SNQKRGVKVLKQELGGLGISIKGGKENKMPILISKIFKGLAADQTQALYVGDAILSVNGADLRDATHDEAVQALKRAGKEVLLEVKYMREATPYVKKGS

LAP2, Q96RT1 = target: LAP2, Q96RT1
LAP2, Q96RT1, sequence (Q96RT1 other isoform, or with tags, fused parts or gaps): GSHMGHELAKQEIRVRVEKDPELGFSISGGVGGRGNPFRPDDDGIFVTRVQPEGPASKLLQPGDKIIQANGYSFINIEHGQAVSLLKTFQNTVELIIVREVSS

MAGI2_5, Q86UL8 = target: MAGI2_5, Q86UL8
MAGI2_5, Q86UL8, sequence (Q86UL8 915-1017): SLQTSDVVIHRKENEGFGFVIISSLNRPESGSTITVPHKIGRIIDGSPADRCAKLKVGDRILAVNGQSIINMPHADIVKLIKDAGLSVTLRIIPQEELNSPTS

LNX1_2, Q8TBB1 = target: LNX1_2, Q8TBB1
LNX1_2, Q8TBB1, sequence (Q8TBB1 371-470): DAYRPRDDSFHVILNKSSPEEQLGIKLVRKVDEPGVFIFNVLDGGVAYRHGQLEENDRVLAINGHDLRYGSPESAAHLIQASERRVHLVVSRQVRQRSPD

MAST2, Q6P0Q8 = target: MAST2, Q6P0Q8
MAST2, Q6P0Q8, sequence (Q6P0Q8 1099-1202): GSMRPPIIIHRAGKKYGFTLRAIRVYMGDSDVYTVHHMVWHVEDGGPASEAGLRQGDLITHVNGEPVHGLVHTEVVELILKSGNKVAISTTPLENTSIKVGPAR

DLG1_2, Q12959 = target: DLG1_2, Q12959
DLG1_2, Q12959, sequence (Q12959 314-412): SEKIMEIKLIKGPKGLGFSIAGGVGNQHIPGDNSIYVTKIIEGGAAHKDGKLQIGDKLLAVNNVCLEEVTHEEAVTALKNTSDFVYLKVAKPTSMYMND

GIPC2, Q8TF65 = target: GIPC2, Q8TF65
GIPC2, Q8TF65, sequence (Q8TF65 112-203): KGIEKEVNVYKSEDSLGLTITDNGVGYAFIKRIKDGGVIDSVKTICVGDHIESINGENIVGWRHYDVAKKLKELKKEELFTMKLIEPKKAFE

APBA2_2, Q99767 = target: T6, APBA2_2, Q99767
T6 sequence (Q99767 654-744, limits assumed, looked up): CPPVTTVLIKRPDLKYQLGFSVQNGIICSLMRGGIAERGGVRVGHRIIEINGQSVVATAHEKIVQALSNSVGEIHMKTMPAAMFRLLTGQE

DLG4_1, P78352 = target: DLG4_1, P78352
DLG4_1, P78352, sequence (P78352 62-152): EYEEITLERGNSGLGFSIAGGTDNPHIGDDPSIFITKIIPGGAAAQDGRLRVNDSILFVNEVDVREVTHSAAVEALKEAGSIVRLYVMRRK

PDLIM1, O00151 = target: PDLIM1, O00151
PDLIM1, O00151, sequence (O00151 1-87): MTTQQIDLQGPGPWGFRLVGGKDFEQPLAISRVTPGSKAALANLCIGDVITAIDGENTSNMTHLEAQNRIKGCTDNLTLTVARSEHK

DLG4_3, P78352 = target: DLG4_3, P78352
DLG4_3, P78352, sequence (P78352 306-403): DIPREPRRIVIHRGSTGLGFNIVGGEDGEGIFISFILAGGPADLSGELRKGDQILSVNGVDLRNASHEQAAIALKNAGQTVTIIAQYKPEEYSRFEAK

GRID2IP_2, A4D2P6 = target: GRID2IP_2, A4D2P6
GRID2IP_2, A4D2P6, sequence (A4D2P6 272-370): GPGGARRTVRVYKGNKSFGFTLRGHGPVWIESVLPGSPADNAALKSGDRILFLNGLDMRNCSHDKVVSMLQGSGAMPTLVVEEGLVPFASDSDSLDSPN

GRIP2_5, Q9C0E4 = target: GRIP2_5, Q9C0E4
GRIP2_5, Q9C0E4, sequence (Q9C0E4 544-642): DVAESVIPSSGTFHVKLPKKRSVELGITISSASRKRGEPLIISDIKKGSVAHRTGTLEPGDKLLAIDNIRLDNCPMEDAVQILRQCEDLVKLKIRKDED

Inadl_10, Q8NI35, sequence (Q8NI35 1673-1763): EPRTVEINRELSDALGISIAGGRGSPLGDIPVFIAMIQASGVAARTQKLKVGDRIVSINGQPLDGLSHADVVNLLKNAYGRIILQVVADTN
DLG4_2, P78352, sequence (P78352 155-259): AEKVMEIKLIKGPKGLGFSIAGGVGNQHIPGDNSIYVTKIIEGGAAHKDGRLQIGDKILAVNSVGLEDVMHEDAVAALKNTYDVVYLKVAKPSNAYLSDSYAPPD

Binder | pKd (Inadl_10, Q8NI35) | pKd (DLG4_2, P78352) | pKd (DLG2_3, Q15700) | pKd (LNX1_3, Q8TBB1) | pKd (SHANK1, Q9Y566) | pKd (ARHGAP21, Q5T5U3) | pKd (GORASP2, Q9H8Y8) | pKd (MAGI2_4, Q86UL8) | pKd (PDZD2_2, O15018) | pKd (RADIL, Q96JH8) | pKd (Inadl_1, Q8NI35) | pKd (HTRA2, O43464) | pKd (MAGI3_2, Q5TCQ9) | pKd (MAST1, Q9Y2H9) | pKd (HTRA1, Q92743) | pKd (IL16_1, Q14005) | pKd (FRMPD4, Q14CM0) | pKd (Inadl_6, Q8NI35) | pKd (IL16_4, Q14005) | pKd (GRASP, Q7Z6J2) | other results
PTPDLPQTRV [KLHDC7A, Q5VTJ3] | below the threshold | 3.5 | 3.91 | below the threshold | 4.5 | below the threshold | below the threshold | below the threshold | 3.75 | below the threshold | below the threshold | below the threshold | 3.79 | 4.58 | below the threshold | 3.59 | 3.48 | below the threshold | 3.5 | 3.64 | pKd (SNTB1, Q13884): 4.95; pKd (LAP2, Q96RT1): below the threshold; pKd (MAGI2_5, Q86UL8): below the threshold; pKd (LNX1_2, Q8TBB1): below the threshold; pKd (MAST2, Q6P0Q8): 5.2; pKd (DLG1_2, Q12959): 3.53; pKd (GIPC2, Q8TF65): below the threshold; pKd (APBA2_2, Q99767): below the threshold; pKd (DLG4_1, P78352): below the threshold; pKd (PDLIM1, O00151): below the threshold; pKd (DLG4_3, P78352): 3.72; pKd (GRID2IP_2, A4D2P6): 4.26; pKd (GRIP2_5, Q9C0E4): below the threshold
ARGPPRESEV [FAM110D, Q8TAY7] | below the threshold | 5.63 | 4.54 | below the threshold | below the threshold | 3.8 | below the threshold | 4.09 | 4.83 | below the threshold | below the threshold | below the threshold | 5.03 | 4.48 | below the threshold | 4.97 | below the threshold | below the threshold | below the threshold | below the threshold | pKd (SNTB1, Q13884): 5.12; pKd (LAP2, Q96RT1): 4.37; pKd (MAGI2_5, Q86UL8): 3.9; pKd (LNX1_2, Q8TBB1): below the threshold; pKd (MAST2, Q6P0Q8): 4.89; pKd (DLG1_2, Q12959): 5.48; pKd (GIPC2, Q8TF65): 4.32; pKd (APBA2_2, Q99767): below the threshold; pKd (DLG4_1, P78352): 4.83; pKd (PDLIM1, O00151): 3.71; pKd (DLG4_3, P78352): 4.42; pKd (GRID2IP_2, A4D2P6): below the threshold; pKd (GRIP2_5, Q9C0E4): below the threshold
ARSAAASNYV [CLDN4, O14493] | below the threshold | below the threshold | below the threshold | below the threshold | below the threshold | 3.9 | 4.01 | 3.65 | 4.49 | 4.5 | below the threshold | below the threshold | below the threshold | 3.66 | 4.17 | below the threshold | below the threshold | below the threshold | below the threshold | below the threshold | pKd (SNTB1, Q13884): below the threshold; pKd (LAP2, Q96RT1): below the threshold; pKd (MAGI2_5, Q86UL8): below the threshold; pKd (LNX1_2, Q8TBB1): below the threshold; pKd (MAST2, Q6P0Q8): below the threshold; pKd (DLG1_2, Q12959): below the threshold; pKd (GIPC2, Q8TF65): below the threshold; pKd (APBA2_2, Q99767): below the threshold; pKd (DLG4_1, P78352): 3.54; pKd (PDLIM1, O00151): below the threshold; pKd (DLG4_3, P78352): below the threshold; pKd (GRID2IP_2, A4D2P6): 3.56; pKd (GRIP2_5, Q9C0E4): below the threshold
QRPYRRGSEI [KCNJ18, B7U540] | below the threshold | 3.66 | 3.91 | below the threshold | below the threshold | below the threshold | below the threshold | below the threshold | 4.79 | below the threshold | below the threshold | below the threshold | 3.99 | below the threshold | 3.85 | 3.61 | below the threshold | below the threshold | below the threshold | below the threshold | pKd (SNTB1, Q13884): below the threshold; pKd (LAP2, Q96RT1): 4.09; pKd (MAGI2_5, Q86UL8): below the threshold; pKd (LNX1_2, Q8TBB1): below the threshold; pKd (MAST2, Q6P0Q8): 4.1; pKd (DLG1_2, Q12959): 3.51; pKd (GIPC2, Q8TF65): below the threshold; pKd (APBA2_2, Q99767): below the threshold; pKd (DLG4_1, P78352): below the threshold; pKd (PDLIM1, O00151): below the threshold; pKd (DLG4_3, P78352): below the threshold; pKd (GRID2IP_2, A4D2P6): 3.71; pKd (GRIP2_5, Q9C0E4): below the threshold
NISYRRESAI [KCNJ4, P48050] | below the threshold | 4.17 | 4.36 | below the threshold | below the threshold | below the threshold | below the threshold | below the threshold | 4.36 | below the threshold | below the threshold | below the threshold | 4.9 | 4.06 | below the threshold | 3.55 | below the threshold | below the threshold | below the threshold | below the threshold | pKd (SNTB1, Q13884): 4.03; pKd (LAP2, Q96RT1): below the threshold; pKd (MAGI2_5, Q86UL8): below the threshold; pKd (LNX1_2, Q8TBB1): below the threshold; pKd (MAST2, Q6P0Q8): 4.72; pKd (DLG1_2, Q12959): 4.48; pKd (GIPC2, Q8TF65): below the threshold; pKd (APBA2_2, Q99767): below the threshold; pKd (DLG4_1, P78352): below the threshold; pKd (PDLIM1, O00151): below the threshold; pKd (DLG4_3, P78352): 4.12; pKd (GRID2IP_2, A4D2P6): 3.51; pKd (GRIP2_5, Q9C0E4): below the threshold
